{"source": "patent US20240238441A1", "binders": {"B1": {"name": "Wnt7a-HA (ligand)", "chain": "LGASIICNKIPGLAPRQRAICQSRPDAIIVIGEGSQMGLDECQFQFRNGRWNCSALGERTVFGKELKVGSREAAFTYAIIAAGVAHAITAACTQGNLSDCGCDKEKQGQYHRDEGWKWGGCSADIRYGIGFAKVFVDAREIKQNARTLMNLHNNEAGRKILEENMKLECKCHGVSGSCTTKTCWTTLPQFRELGYVLKDKYNEAVHVEPVRASRNKRPTFLKIKKPLSYRKPMDTDLVYIEKSPNYCEEDPVTGSVGTQGRACNKTAPQASGCDLMCCGRGYNTHQYARVWQCNCKFHWCCYVKCNTCSERTEMYTCKYPYDVPDYA"}}, "key": {"[1]": {"target": "Coatomer complex of HEK293T cells (Homo sapiens (Human)) (UniProt P53621)"}, "[2]": {"target": "Coatomer complex of HEK293T cells (Homo sapiens (Human)) (UniProt P53621)", "remark": "listed apart in the source"}}}
{"binder": "B1", "values": [{"measurement": "Wnt7a expression per ug of total protein, EV Fraction (tangential flow filtration) (per ug of total protein)", "setting": "[1]", "result": 0.13}, {"measurement": "Selection pattern Distribution (%), EV Fraction", "setting": "[2]", "result": 83.4, "unit": "%"}]}
